Assay results reported in the DeepSol protein solubility set.

Assay: soluble on expression in E. coli; label from the status in PepcDB or PDB records

Row | Sequence | soluble on expression in E. coli
1 | MGSDKIHHHHHHMPTLLMITPENSEINKFKAHQLNNFTQLTMPYLAGFVPEEYSIRLLDEYTEPILFEKVDLVAITVNTPNAPHVYSVSKRFRELGAWVALGGPHVTLNPEEAACHGDTIFVGEAEETWPEFLKDFLSGNMQKVYTSLQVPSLDGLPIPRRDLIVGHRFTSGAVFASRGCPHHCSYCSLKKIYHNKLRTRPVDEVIKDIGSMPNKYFVFWDDNFFADPVYTKALLKELARLNKRWAAQVTAYSCEDEELLSLAKSAGCLYLFLGLESFSEQGLRDANKNFNKIEEYGKVVNKLHRHGISIQAGIVFGFDSDTLDVFETTLKACNKIGVDGVTASILTPFPGTSIYEQYKKEGRLLDVDWDHYNGKTRVAYVPKRMNCKELLNGYNEFRGKFHSWRSIVKRISKSRVNIFYSLAMNYGYKRAYRNFTRLGIGERSDESLGQRMEQHLRNWPR | not soluble
2 | MAHHHHHHMPGSLKVQTGRGDARKTVKKTVLSKGNITRSDEPAGVADSAASASVAKSSSTTASTLTIAVALSMCEQERAVEAVKETIPASASREVLRKDPIYRIMHALPRSDVLEVVRSRFEKPHCERAAAYFDLSYMKNPLRHLRLQLGCDGPTGIYLFFRRIAAHRHTLRVVDFSRNRLSADDAVLICNTLGLGVAGDVATAPGTTKASSAGAVADSTVSTAVGASAQPASSLELLDLSYNAKLGNDGAVHVVRAVRRLPSIRAVILKSVGIDDAGAVAMADVVRRWPAPALCANSAAPHALLRPVTASATKFYLNLNENYIGARGTDVLGKGLPHYVSLTLAKQQPDPARDRKRSRDDDGAACR | not soluble
3 | MGHHHRRDTERVCIRTRKIYDWVTRQVDVPLRSFSGEDLEAIFPMDHCRREGTICDFLGAQHTNPQHLTIRCFLTDADGNPIDSVVDQDALICQEITQPNGRQSVNVTLPSGETVTLQKVKALIKGHVVVQIVSPAGTVICQSKPIPFATAQTFILCAPEGTQLNCHISFFECDTSLVCTDNFAQLDVSITLCLEVQVEADVKIEVEARFCQPREELAEAVLCPTTKFPPQCPDVFPAM | not soluble
4 | MSLVAVRSAHLNPDQQFELETWIASLTQEGKTAAKLTAVYRDCEQLLAGNPQGPLLLWRGREMIEILITLSMDRPTLVAALLFPIATSGVLDNESLEEGYGREVVKLIHGVEEMAAIGQLNVTMHGSEASAQVDNVRRMLLAMVDDFRCVVIKLAERICNLREVKNEPDEVRRVAAKECANIYAPLANRLGIGQLKWEIEDYAFRYQQPDTYKQIAKQLSERRIVREQYIRDFVSDLRAEMKQSGINAEVSGRPKHIYSIWRKMQKKSLAFDELFDVRAVRIIADKLQDCYAALGIVHTKYKHLPNEFDDYVANPKPNGYQSIHTVILGPEGKTIEIQIRTKQMHEESELGVAAHWKYKEGSSAARSGYDEKITWLRKLLDWQEEMSDSGEMLDELRSQVFDDRVYAFTPKGDVVDLPMGATPLDFAYHIHSEVGHRCIGAKVAGRIVPFTHKLQMGDQVEIITAKEPNPSRDWLNPSLGFVHSGRARAKINAWFRKQSREKNLEAGREILEIELAKIGANLKHAEAYALKRFNVNSVDEMYVGIGSGDLRINQIVNHINALVNKPTAEEEDKLALEKLQENKTLTPNRPHKDAVVVEGVDNLMTHLARCCQPIPGDEIRGYITQGRGISVHRSDCEQLEELSLHAPERIIDTVWGSGFVGSYLLTVRVEAMERSGLLKDITTLLANEKVKVASMKSRSDYKRQIIIMDFDLEVNNVEALARVSKRIEQIKDVMLVKRLGEGHHHHHH | not soluble
5 | MVQQKVEVRLKTGLQARPAALFVQEANRFTSDVFLEKDGKKVNAKSIMGLMSLAVSTGTEVTLIAQGEDEQEALEKLAAYVQEEVLQ | soluble
6 | LIPILGLGNYTAQVDIELDFSAVEQTRKVFDPNTPATRSEYTLEDYNNGNVVAGVPGALSNQPPADASIPQDVAQMKDGSVMGQGSVHKEATRNYELDTTISHERKQSGVINRQTVAVAVKSRSSVNPDTGEVTYTPLSEADLNSIRQVLIGTVGYSENRGDLLNVLSMPF | not soluble
7 | MGNSLHQIKCCTSFIHCQNAAVDAPSIAKTLADYLYPAFFHQDLPAPLKISVTGCPNQCGGGVEADIGISGYFATVPRVDDAGLMAANIDFGHLISGCPVGAIRPRQVEGGTTVVINAERCIRCTSCIQVAPEGIKPGPERFVAIAVGGHGGNNRRGPEMAAVVFSRVPARPLDYAAICERVQRIIACWRDRGKRGERLAGFLERLEHHHHHH | not soluble
8 | MTENNVDPYEVVKKRYESTVDSFVLSDLFQPTLESNQELIDDVKDNRLVIYTAFTGNYDELKEPEFIDENCDYVCFTENPDLESDTWEIVQMEKSTLDDNRKAKQYRLFTDKYFPEYKYSFWLDGTFKIVGSIREYIYKYAKSKMLVVVHPERDCIYDEAVMSMPFPRYSNYTMTKQVEKYRSEGMPEHYGLPATGALFRAHNDPEIISIMRQWWREVVNYTNQDQLSLPYVMWKNNFHPSVSDVYYWVNEYWSKEGSYQHNFEIEDYITSRNLIESLEGNIKDKNTLTKEEINLLFNDIDALRDEANALNIARDHWDRQIRGVRNSTSWLEHHHHHH | soluble
9 | MEPWLVGIDLGGTTIKMAFVTTEGDIVHKWEIPTNTANRGEHIVADIARSLEKTLGQLGGAKERLLAAGIGAPGPVEEETGMLYETVNIGWTNYPLKQRLEEATGLPVSVDNDANLAALGEMWKGAGGGARHLLFVTLGTGVGGGVIANGAIVRGINGAGGEIGHMTMIPDGGARCNCGKTGCLETIASATGIVRIAKEKLTADERPSELRNGDVTAKAVFDAAKAGDALALEVVDEATYYLGWALANAANVTNPEKIVIGGGVSKAGDMLVERVAAHFRRFAFPRVAAGAKLVLATLGNDAGVIGAAWLAKELVGA | not soluble
10 | LHPFFRSFALRASAHPVLSADFESAFAAARHAAPATAAAVQTAERLPEWNLTDLYPAMDSPELKADLDKADVACKAFETAFKGKLAALLALPDGGAALGAAVKSYEEVDDLLGRIASYGSLIYAGDTSDPARAKFYGDIQERLTDASTHLLFFTLEMNRLDDAALEAAMADPALGYYRPWVEDLRKDKPYQLDDKIEQLFHEKSNPSRGAWSRLFDETISSLRFTVDGQDLAIEPTLNLMQDPREEVRKSAGLALADTFGKNLRLFTLITNTLAKDKEISDRWRGFEDVASSRHLANRVEKEVVDAMVEAIRVSFPRLSHRYYALKARWFGKDRLEFWDRNAPLPKVETRDIGWGEAKDTVLSAYGAFSPKMADIAKTFFEKSWIDAPVRPGKSPGAFAHPTVPSAHPYVLLNYQGKPRDVMTLAHELGHGVHQVLAARQGALMAPTPLTLAETASVFGEMLTFRRLLDGAETPRARKIMLAQKVEDMINTVVRQTAFYTFERDVHIERRQGELTSEKIGEIWMKVQGESLGPAIHLGAGYETFWTYIPHFIHSPFYVYAYAFGDCLVNSLYAVYENAADGFADRYLEMLSAGGTKHHAELLAPFGLDARDPAFWQTGLSLIDRMISELESMEG | soluble
11 | MGWQTLKQQSVPARKRLLYLHIPFCATHCTFCGFYQNKLRDDSTATYTRYLLQELAMEADSPLHQSAPIHAVYFGGGTPTALAADELSQIIRAIRTSLPLAPDCEITVEGRAMDFDDERIDACLDAGANRFSIGIQTFDTRIRQRMARTSDKQQSIRFLERLCGRDRAAVVCDLMFGLPGQTPEIWREDLAIVSDLPLDGVDLYALNLLPTTPLAKAAENQRVALPDVVARRDFYRTGAAFLADSGWHQLSNSHWARTTRERNLYNLLIKQGADCLAMGSGAGGNINGQAYMMERSLERYYQQIDQGQKPIMMMTPASSTGPWQHQLQAGIEVGRIKLPQLTQHARELQPLLSQWHQAGLTCDDSTCLRLTNDGRFWANNLMQALQQIIPQLNAEEHAHLEHHHHHH | not soluble
12 | MLSLFALSEENKPELDCVANPTLLPHDIMYFDGFLSSEDEAFVADRLDAGEWSTELKRRVQHFGYRYDYKVRAVTPDAYLGPLPPWLGLFAERLVADGYCRTVPDQVIANEYLLGQGISAHVDCVPCFDDTIVSISLLSACEMVFRDLRGPGIRSVLHPRSGVLLRGSSRYDWTHEIPARKSDIVNGVKTARSRRISLTFRKVLGLKRPLEHHHHHH | not soluble
13 | GGSGWNADNVDPSQCIKQSGVQYTYNSGVSVCMQGLNEGKVRGVSVSGVFYYNDGTTSNFKGVVTPSTPVNTNQDINKTNKVGVQKYRALTEWVGSRSHHHHHH | soluble
14 | MFFSEARARSRTWEASPSEHRKWVEVFKACDEDHKGYLSREDFKTAVVMLFGYKPSKIEVDSVMSSINPNTSGILLEGFLNIVRKKKEAQRYRNEVRHIFTAFDTYYRGFLTLEDFKKAFRQVAPKLPERTVLEVFREVDRDSDGHVSFRDFEYALNYGQKEA | not soluble
15 | MSSAENIKESGKAKKQKNGNKNNNKKPSAEAIPLKNSPRNKLKKRGSMEQLSEQISEVFTIEMNNDQATVEEPTDTTVRINPADPSSPKVSTSEPKVTVPEPPPTHYAPVVVFIDHLSWPIFLHFVIVNRNMIITKVGRSFLTSLMPGDQISGVDSTPIWCIEDLEHEIQSKPARSVNLTVNRVWNIKCLTNIQLERILPQTDERLQYFMVHVYCSNGTGGLKLYSDKKRVLVQHIRAKTPICHALLVGDQILAINDEFLIGKPKKSLRRHAYDSIKKSFKTKGFAEIIACRPIGARSSPAPSVDAELSGKFANYACGVEKGNKLERKVTDETNNLPLEADALEIALRELTFLQQWVKQDFEEAPCEKGKSLLILKPPFENAKPYEYPPFVVNHQTQLVSAKALSSPVTNTPVAHSPPQALPNKTIIVPVGSTSSVLVPSTTSNALPPVLSLNSQSLSVKTLSMAPQVSQVEPPTSVMNGPTEAADLHVAVPPSPNTPRKRSIFKYKQEKGQTPEHQTTISFVEQPETSKITSDISEDEELKKCDPRSGIVAFIKNKFN | not soluble
16 | MSSASELMRCSGRWTLFRRTLPRLRKCVGVGETSGREKPPNSPNSSTLPMMTKTELSPPQIHINFIFFLPKNVFILKNCSL | not soluble
17 | GPGSMLHRSLACFAVPADRKAFMELVKTLRYRTEAPISDCSAALKETDGDMDAAMQVLRKRGAARAMKKGDRVTEHGFVVSCVGSTPQSGAAIVTICSETDFAARNEHFQRVCMQVRDQLCKLMDATNGAVLANPEEAVKHLSDVMAEELRVAIAVLGENMRVRSIAPLVPAPHVSERLLIGSYTHGSLNVDNVGRIVGLVALSQVRENEVVPKDVLTSVGRHFVATSGAEGNYAHQNFFGSETETVGKWLKQRGLKFSSSLVQEFGKEPVVHTAPEPHR | not soluble
18 | MSLDLQEKVRVAAEAVKHADAIVMTAGAGMGVDSGLPDFRGDTGFWKAYPPYQKLGITFVGAANPDHFERDPSFGWGFYGHRTNLYRATVPHAGFDILREWVQRYGLDYFVVTSNVDGQFQKAGFADDRILEVHGSIHHLQCTTPCTMAIWENRETIPVDEATMRAGHVPRCIHCGAVARPNILMFGDYGWVSDRSARQQRNFDEFLADTRGGRLVVVEMGAGTAIPTIRYLTEELGSRSEALAVRINPREPQIRAPHLSLPCGAREGVAAINAVLAEESEGHHHHHH | soluble
19 | KLDKAYLNNDADKITYMPTWRPWEESEIINGNIKKTTYYKSILDVIKAFEKENMLNRLQIAAHNKFSQYMKNNFDKYQNIFIEDPTDTLTNSIIYITDISSIILDAAYRGAYPIFYWKEFDYIIEKHGGTSPVNPENAPGDVVYSEQDLVNIVKYIIRNDYKIPSRIKENYKKLNEFNDNQNTQRVVDILIEDNII | not soluble
20 | MGSDKIHHHHHHMSKSLIRIAPGALTIGKPLPWDVFDSEGNILLRQGYVIQTNSQLEQLFERGRFKPRKIERPKEETFEDLRQRNPFAEYGDLLTTLEVTLNAITSEDPTAQKRLLGLCRMLDKTCQEAPDASLALVHLYSISPTIHEQILFYGILCHFIARQFGLEEKRATVLTAAALTANLALVPVADQLNASNTVLTDDQRAVIRKHPARSIQALTSAGINNKLLLRIIAQHHEQADGSGYPEGLSGSDILPEAEILALAERYVAMITKRAYRNRMNITEARKLIATLADGKFRPAIPRSLLQVLGDHPPGMLVRLVNNEVGVVTRRADRTRGPFVKAIFGPRGNRYNGTFERDTSLLEYNVRAPEEPEIMPSMDFSMLWGFRS | not soluble
